Data from patent publication US12358963B2, “Regenerative polypeptides and uses thereof” (Juvena Therapeutics, Inc., priority 2019, dated 2025).

Assays:
human myoblast = assay: Human myoblast proliferation (nuclei counts, EdU counts); type: cell-based; details: FGF17 0.1 ug/mL, 72h; FM 205
Protocol: FIG. 5A) Bar graph quantitation of % EdU+ mouse myoblast in response to BMP7. Myoblast were cultured 48h in the presence of BMP7 at indicated dose. Fresh media and BMP7 was added every 24h, followed by 2 hour EdU pulse and fixation. Mean∓S.D. Significant p-values (Vehicle˜BMP7 0.025 ug/mL: 1.21E-07, Vehicle˜BMP7 0.075 ug/mL: 8.05E-07, Vehicle˜BMP7 0.2255 ug/mL: 3.37E-03, Vehicle˜BMP7 0.9 ug/mL: 4.99E-02). FIG. 5B) Bar graph quantitation of % EdU+ human myoblast (person) in response to BMP7. Myoblast were cultured 72h in the presence of BMP7 at indicated dose. Cells were pulsed with EdU for 4 hours before fixation. Mean∓S.D. Significant p-values (Vehicle˜BMP7 1.56 ng/mL: 0.04). (*p<0.05 by Welch's One-Tailed T-test, n=2)
Bar graph of total EdU+ mouse myoblast cells compared per condition. Myoblast were cultured 48h in the presence of indicated factors. Fresh media and factors were added every 24h, followed by 2 hour EdU pulse and fixation. Mean∓Standard Deviation(SD) Table quantitation of EdU counts per field and p-values for mouse assay (*p<0.05 by Student's One-Tailed T-Test of increased activity, n=3-6, Synergy values <1 are evidence of effect). Bar graph of total EdU+ human myoblast cells per condition. Myoblast were cultured 72h in the presence of indicated factors, followed by 4 hour EdU pulse and fixation. Fresh media and factors were added every 24h. Mean∓Standard Deviation(SD). Table quantitation of +EdU counts and p-values for human assay. (*p<0.05 by Student's One-Tailed T-Test of increased activity, n=3-6, Synergy values <1 are evidence of effect)

[1] = system: aged human myoblast cell lines; assay: Myogenic gene RNA expression in aged human myoblasts by real-time qPCR; type: cell-based
Protocol: (§1) Myogenic gene RNA expression (fold change to FM) in response to vehicle (FM) in mouse myoblast cell lines monitored by real-time qPCR. Myoblast were cultured 48h in fusion media. Mean±SD. n=3. (Y,Z) Differential induction of myogenic gene expression by FGF17 in human myoblast myoblasts. Quantitation table of myogenic gene RNA expression (fold change to FM-fusion media (DMEM+2% horse serum)) in response to FM or rh-FGF17 in aged human myoblast cell lines by real-time qPCR. Myoblast were cultured (B) 48 hours or (C) 72 hours in FM. Mean∓SD. n=3.
(§2) RNA was isolated from each well (RNeasy Mini Kit, Qiagen) and cDNA was obtained by reverse-transcription (High Capacity Reverse Transcription Kit, Thermo Fisher Scientific). Real-time quantitative PCR was performed using QuantStudio3 (Thermo Fisher).
Aged human myoblasts were cultured in well plates. […] Cells that had been cultured with IGF2 had increases in levels of MYOG at 48 hours and levels of MYOD at 72 hours.

[2] = system: mouse myoblast cell lines; assay: Myogenic gene RNA expression in mouse myoblasts by real-time qPCR; type: cell-based; details: 48h in fusion media
Protocol: as §1, §2

12 weeks old mice = assay: Dexamethasone induced muscle atrophy, FGF17; type: in vivo, mouse; details: Dexamethasone 25 mg/kg i.p. 20 days; FGF17 0.5 mg/kg subcutaneous
Protocol: FIG. 17A) Experiment overview and groups. […] Muscle weight was assessed on Day 21. Forelimb grip strength and both limb grip strength were measured on Day 7, 13 and 21 FIG. 17B) TAs muscle weight over initial body weight shown as the percentage change from vehicle. ***p=0.0005, *p=0.0499. […] One way Anova corrected for multiple comparisons using Tukey method was used to compare data.
The experimental design is C57BL/6J male mice with daily administration of Vehicle, N=7; dexamethasone (25 mg/kg i.p.), N=6, or dexamethasone+treatment article, N=6, for 20 days. This design can be used to test any single factor identified and validated in in vitro assays or complex mixtures of 2 or more factors.
On day 21, animals are sacrificed, and animal weight recorded. 0.5 ml of blood is collected via cardiac puncture and processed to plasma for storage of plasma samples at −80° C. The animals are perfused with 1×PBS. After carefully dissecting the skin from the GA/TA muscles of each hind leg, photos are taken, followed by excision of exclusively the GA or TA muscle, weighing the muscles, then flash freezing in isopentane at −80 C.

B1: FGF17: FGF17 polypeptide, FGFR agonist (protein, listed as Homo sapiens)
chain: TQGENHPSPNFNQYVRDQGAMTDQLSRRQIREYQLYSRTSGKHVQVTGRRISATAEDGNKFAKLIVETDTFGSRVRIKGAESEKYICMNKRGKLIGKPSGKSKDCVFTEIVLENNYTAFQNARHEGWFMAFTRQGRPRQASRSRQNQREAHFIKRLYQGQLPFPNHAEKQKQFEFVGSAPTRRTKRTRRPQPLT
Ave. + EdU Counts (human myoblast): 349
MYOD1 RNA expression (fold change to FM) ([1]; 48 hr, FM 1.001): 0.604
MYOG RNA expression (fold change to FM) ([1]; 48 hr, FM 1.013): 2.353
MYF5 RNA expression (fold change to FM) ([1]; 48 hr, FM 1.04): 1.922
MYF5 RNA expression (fold change to FM) ([1]; 72 hr, FM 1.023): 0.499
MYOD1 RNA expression (fold change to FM) ([1]; 72 hr, FM 1.055): 1.627
MYOG RNA expression (fold change to FM) ([1]; 72 hr, FM 1.092): 13.124
Myf5 RNA expression (fold change to FM), Mean ([2]; FM 1.002): 1.376
Myod1 RNA expression (fold change to FM), Mean ([2]; FM 1.002): 1.230
Pax7 RNA expression (fold change to FM), Mean ([2]; FM 1.011): 6.118
Muscle atrophy (muscle weight, forelimb and both limb force) (12 weeks old mice): Protects Against Dexamethasone Induced Muscle Atrophy
